T1: 5T4-Fc (human, UniProt Q13641 32-355, limits assumed)
T1 construct: obtained from Peter L. Stern, University of Manchester; also called h5T4-Fc; recombinant 5T4
T1 sequence (looked up): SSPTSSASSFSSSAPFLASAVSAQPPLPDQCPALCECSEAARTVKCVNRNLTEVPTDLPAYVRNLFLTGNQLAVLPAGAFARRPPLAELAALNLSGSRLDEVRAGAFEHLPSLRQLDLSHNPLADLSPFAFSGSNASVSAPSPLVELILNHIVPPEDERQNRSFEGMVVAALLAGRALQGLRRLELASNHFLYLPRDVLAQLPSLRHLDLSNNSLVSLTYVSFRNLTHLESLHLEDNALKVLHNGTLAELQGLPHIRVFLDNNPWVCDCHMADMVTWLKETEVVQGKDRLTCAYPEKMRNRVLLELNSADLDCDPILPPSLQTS

T2: mouse 5T4 (mouse, UniProt Q9Z0L0 32-426)
T2 construct: whole, on cells; also called murine 5T4
T2 sequence (looked up): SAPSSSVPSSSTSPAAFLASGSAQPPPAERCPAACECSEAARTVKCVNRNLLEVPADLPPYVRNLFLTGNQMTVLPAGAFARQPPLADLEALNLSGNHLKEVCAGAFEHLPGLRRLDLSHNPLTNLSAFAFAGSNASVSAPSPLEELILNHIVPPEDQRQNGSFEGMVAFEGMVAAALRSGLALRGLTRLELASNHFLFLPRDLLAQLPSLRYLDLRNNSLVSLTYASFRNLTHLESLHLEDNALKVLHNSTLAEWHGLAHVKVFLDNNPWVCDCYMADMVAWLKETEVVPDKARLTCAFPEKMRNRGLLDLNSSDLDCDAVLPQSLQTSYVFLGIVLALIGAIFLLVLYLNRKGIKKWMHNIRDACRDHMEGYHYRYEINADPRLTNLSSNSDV

T3: 5T4 (immobilised for SPR) (UniProt Q13641 32-355, limits assumed, biotinylated on the MASS-1 platform)
T3 construct: also called biotinylated 5T4
T3 sequence (looked up): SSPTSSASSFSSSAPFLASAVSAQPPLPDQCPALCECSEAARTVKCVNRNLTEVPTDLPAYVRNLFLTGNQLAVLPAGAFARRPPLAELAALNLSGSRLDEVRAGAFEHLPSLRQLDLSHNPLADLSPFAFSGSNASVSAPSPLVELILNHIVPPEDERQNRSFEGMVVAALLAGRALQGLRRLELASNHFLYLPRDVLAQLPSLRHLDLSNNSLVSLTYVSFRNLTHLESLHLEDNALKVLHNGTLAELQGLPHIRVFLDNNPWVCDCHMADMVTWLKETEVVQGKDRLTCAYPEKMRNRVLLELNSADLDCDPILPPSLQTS

T4: Human OX40 (R&D Systems, 3388-OX) (human, UniProt P43489 29-216)
T4 construct: bought; also called OX40-Fc; Human OX40 (R&D systems, #3358_OX)
T4 sequence (looked up): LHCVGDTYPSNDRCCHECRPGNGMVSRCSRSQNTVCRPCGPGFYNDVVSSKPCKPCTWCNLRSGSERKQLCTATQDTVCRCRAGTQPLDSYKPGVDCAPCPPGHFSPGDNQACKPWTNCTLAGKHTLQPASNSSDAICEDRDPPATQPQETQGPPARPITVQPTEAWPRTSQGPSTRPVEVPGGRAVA


What was measured:
[1] = molecular target: T1, 5T4-Fc; assay: ELISA, plates coated with 5T4-Fc
Experimental: ELISA was performed using a standard protocol. Plates (#655074, Greiner Bio-One GmbH, Germany) were pre-coated with 0.5 μg/ml 5T4-Fc (obtained from Peter L. Stern, University of Manchester) overnight. 5T4 antibodies were diluted from 6 to 1.5×10⁻³ μg/ml in 1:4 dilutions and added in duplicates of 50 μl to each well. Binding was detected with rabbit anti-h kappa L-chain-HRP (P0129, Dako Denmark) and the ELISA was developed with SuperSignal ELISA PICO Chemiluminescent substrate (Thermo Scientific Pierce, Rockford, Ill. USA) for 2-10 minutes and read in an automated microplate based multi-detection reader (FLUOstar OPTIMA, Netherlands).

[2] = molecular target: T2, mouse 5T4; assay: flow cytometry, mouse 5T4-transfected cells
[3] = molecular target: T3, 5T4 (immobilised for SPR); assay: SPR MASS-1, biotinylated 5T4 on streptavidin chip, mAb injected, 1:1 Langmuir
Experimental: Binding kinetics of the 5T4-specific mAbs have been studied using two different SPR-based platforms, the Biacore 3000 (GE Healthcare) and the MASS-1 platform (Sierra Sensors). Briefly, 5T4 was captured at the sensor chip surface either via direct amine coupling (Biacore platform) or using a streptavidin coated chip and biotinylated 5T4 (MASS-1 platform). The different 5T4-specific mAbs were then injected over the chip in increasing concentrations and the association and dissociation rates studied in real time. A 1:1 Langmuir model was used for curve fitting.

[4] = molecular target: T5, cynomolgus 5T4 (Macaca mulatta (cynomolgus)); assay: flow cytometry, CHO cells with cynomolgus 5T4 against CHO cells with human 5T4
T5 construct: whole, on cells; stably transfected CHO cells; also called cyno5T4; cy5T4
Experimental: The potency of 5T4 antibodies in binding to cynomolgus 5T4 was determined by flow cytometry. CHO cells were stably transfected with […] (cynomolgus) 5T4. […] Samples were analysed either on a FACSCalibur or a FACSverse (BD Biosciences, Heidelberg, Germany) and mean fluorescence intensity (MFI) determined. […] To compare the EC50 values between human and cynomolgus 5T4, the cy5T4/hu5T4 ratio was calculated from the experiment with the full dose-response.

[5] = molecular target: T4, Human OX40 (R&D Systems, 3388-OX); assay: dual ELISA: OX40-Fc coated, detection with biotinylated 5T4-Fc and streptavidin-HRP, luminescence
Experimental: A dual ELISA was used to detect simultaneous binding of the two targets by the bispecific antibodies. ELISA plates were coated with OX40-Fc (R&D systems, #3388-OX, 0.5 μg/ml) over night at 4° C. followed by blocking with PBST+2% bovine serum albumin (BSA) for 1 h at room temperature (RT). […] Biotinylated 5T4-Fc (0.5 μg/ml), followed by HRP-labelled streptavidin (Pierce #21126) were used for detection. Super signal ELISA Pico Chemiluminescent Substrate (Thermo Scientific, #37069) was used as substrate and luminescence was measured using FLUOstar Optima.

| EC50 [1] [nM] | binding result [2] | koff [3] [s⁻¹] | kon [3] [M⁻¹ s⁻¹] | Ratio EC50cyno-5T4/h5T4 [4] [ratio] | Binder | binding result [5] |
| --- | --- | --- | --- | --- | --- | --- |
| 0.48 | no binding | 0.00019 | 510000 | 0.9 | 1210/1211 (antibody, IgG1, V domains shown, 5T4 antibody) VH: not shown VL: DIQMTQSPSSLSASVGDRVTITCRASQSISSYLNWYQQKPGKAPKLLIYAASSLQSGVPSRFSGSGSGTDFTLTISSLQPEDFATYYCQQTYGYLHTFGQGTKLEIK | no binding (tested: about 80 nM (log[conc ab] 1.9)) |
| 0.64 | no binding | 0.00013 | 1.4e+06 | 3 | 1206/1207 (antibody, V domains shown, 5T4 antibody) VH: EVQLLESGGGLVQPGGSLRLSCAASGFTFSGSSMSWVRQAPGKGLEWVSSIYYSGSGTYYADSVKGRFTISRDNSKNTLYLQMNSLRAEDTAVYYCARYGRNVHPYNLDYWGQGTLVTVSS VL: DIQMTQSPSSLSASVGDRVTITCRASQSISSYLNWYQQKPGKAPKLLIYAASSLQSGVPSRFSGSGSGTDFTLTISSLQPEDFATYYCQQGYYYLPTFGQGTKLEIK |  |
